Laboratory results taken from US20040191240A1 (published 2004).

Target: T1, amino-terminally FLAG-tagged human p75 (human, UniProt P08138 29-427)
T1 construct: also called FLAG-tagged p75; FLAG-p75; not shown: FLAG tag at the amino terminus
T1 sequence: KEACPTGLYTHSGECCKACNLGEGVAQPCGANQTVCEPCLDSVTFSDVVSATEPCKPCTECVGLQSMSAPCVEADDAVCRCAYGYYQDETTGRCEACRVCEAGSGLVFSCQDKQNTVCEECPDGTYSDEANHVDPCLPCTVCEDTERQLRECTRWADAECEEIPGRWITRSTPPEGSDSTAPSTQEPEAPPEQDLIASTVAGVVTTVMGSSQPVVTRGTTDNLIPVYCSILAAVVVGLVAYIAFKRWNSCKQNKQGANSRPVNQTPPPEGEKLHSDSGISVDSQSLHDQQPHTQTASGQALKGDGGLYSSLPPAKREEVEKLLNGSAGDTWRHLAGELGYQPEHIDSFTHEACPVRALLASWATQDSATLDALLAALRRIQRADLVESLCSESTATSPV
Assay: competition: Pep5 at several concentrations against 1 uM GST-Rho GDI for immunoprecipitated p75

B1: Pep5 (peptide)
peptide: CFFRGGFFNHNPRYC
notes: Chemically synthesized 15-residue peptide; also called peptide ligand to the p75 HD
binding result: binds
